Source: article PMC5847621 (2018)

Target: T1, VSV Gth, soluble form of the ectodomain of VSV glycoprotein G (residues 1-422) (Vesicular stomatitis virus (Mudd-Summer …, UniProt P0C2X0 17-438))
T1 chain: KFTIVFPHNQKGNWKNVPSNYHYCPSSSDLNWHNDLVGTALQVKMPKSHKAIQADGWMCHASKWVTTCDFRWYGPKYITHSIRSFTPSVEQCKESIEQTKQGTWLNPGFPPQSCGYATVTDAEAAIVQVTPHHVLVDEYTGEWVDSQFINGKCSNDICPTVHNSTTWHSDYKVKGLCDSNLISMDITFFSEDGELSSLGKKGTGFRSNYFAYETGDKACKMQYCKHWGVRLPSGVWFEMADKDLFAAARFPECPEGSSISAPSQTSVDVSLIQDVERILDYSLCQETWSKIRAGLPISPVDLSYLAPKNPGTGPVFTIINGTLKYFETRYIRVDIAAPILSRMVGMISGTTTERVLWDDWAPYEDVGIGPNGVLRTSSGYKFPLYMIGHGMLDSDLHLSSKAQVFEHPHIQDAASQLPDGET
Assay: ITC

B1: LDL-R CR3 domain, isolated (GST cleaved off) (domain or fragment)
chain: not shown
  Kd: 3.75 µM
